B1: Neurovirulence factor ICP34.5 (Human herpesvirus 1 (strain 17) (HHV-1)), P36313 (parent)
chain: MARRRRHRGPRRPRPPGPTGAVPTAQSQVTSTPNSEPAVRSAPAAAPPPPPAGGPPPSCSLLLRQWLHVPESASDDDDDDDWPDSPPPEPAPEARPTAAAPRPRPPPPGVGPGGGADPSHPPSRPFRLPPRLALRLRVTAEHLARLRLRRAGGEGAPEPPATPATPATPATPATPARVRFSPHVRVRHLVVWASAARLARRGSWARERADRARFRRRVAEAEAVIGPCLGPEARARALARGAGPANSV

Variants of: B1
Settings: with pp1a_human PPP1CA

| Variant | effect of a mutation on the interaction |
| --- | --- |
| V178E;F180L | decreasing interaction |

Variants of: B1
Settings: with pp1a_human PPP1CA
Remark: another data set of the same source

| Variant | effect of a mutation on the interaction |
| --- | --- |
| V178E;F180L | disrupting interaction |

Variants of: B1
Settings: with pp1a_human PPP1CA
Remark: another data set of the same source

| Variant | effect of a mutation on the interaction |
| --- | --- |
| R234E | decreasing interaction |

Variants of: B1
Settings: with pp1a_human PPP1CA
Remark: another data set of the same source

| Variant | effect of a mutation on the interaction |
| --- | --- |
| R236D | decreasing interaction |

— IntAct's records for PubMed 18068675
